This note sets out measurements from PMC3937519.

pKd: −log10 of the molar value. A value given as a limit tells only on which side of the number the result lay.

The target in test [1] is HIV-1 NL4.3 Vif M29A, recombinant (E. coli) (HIV-1 NL4.3). The test is described as follows: pull-down.
The target of test [2] is HIV-1 NL4.3 Vif Y30A, recombinant (E. coli) (HIV-1 NL4.3). The test is described as follows: pull-down.
Test [3] deals with HIV-1 NL4.3 Vif H28A, recombinant (E. coli) (HIV-1 NL4.3). The test is described as follows: pull-down.
Test [4] addresses HIV-1 NL4.3 Vif H27A, recombinant (E. coli) (HIV-1 NL4.3). The test is described as follows: pull-down.
For test [5], the target named is Vif H108A-CBF-β-Elo B/C complex (HIV-1 NL4.3 | human | not stated) (UniProt Q13951). Put plainly: ITC. On the technique in general: Isothermal titration calorimetry measures the heat released or taken up as one component is titrated into another.
For test [6], the target named is Vif V25A-CBF-β-Elo B/C complex (HIV-1 NL4.3 | human | not stated) (UniProt Q13951). Put plainly: ITC.
The target in test [7] is wild-type Vif-CBF-β-Elo B/C complex (HIV-1 NL4.3 | human | not stated) (UniProt Q13951). The test is described as follows: ITC.
Test [8] deals with Vif H27A-CBF-β-Elo B/C complex (HIV-1 NL4.3 | human | not stated) (UniProt Q13951). The test is described as follows: ITC.

As for “N-terminal Cul5, co-expressed in E. coli (Cul5/Vif pET-Duet) (domain or fragment)”, the percent reduction of Cul5 binding against wild-type Vif was more than 60% in test [1], more than 60% in test [2], 20% in test [3] and more than 60% in test [4].
As a reminder, the pKd is −log10 of the Kd, conventionally taken in molar units. “Cul5-NTD (residues 1 to 393, V341R, L345D) (from UniProt Q93034 1-393) (domain or fragment)”: the pKd is 7.44 in test [5], 6.29 in test [6], 8.23 in test [7] and 6.18 in test [8]. In addition, the dH in test [5] is -4 kcal/mol; in test [7], -9 kcal/mol.
